Key:
CD47 (Homo sapiens) = CD47 (Homo sapiens) (UniProt Q08722); conditions: cited from earlier work
[1] = target: human CD47 with His tag (human) (UniProt Q08722); assay: ELISA; competition with SIRPa-Fc
Sequence of human CD47 with His tag (human) (Q08722 19-323): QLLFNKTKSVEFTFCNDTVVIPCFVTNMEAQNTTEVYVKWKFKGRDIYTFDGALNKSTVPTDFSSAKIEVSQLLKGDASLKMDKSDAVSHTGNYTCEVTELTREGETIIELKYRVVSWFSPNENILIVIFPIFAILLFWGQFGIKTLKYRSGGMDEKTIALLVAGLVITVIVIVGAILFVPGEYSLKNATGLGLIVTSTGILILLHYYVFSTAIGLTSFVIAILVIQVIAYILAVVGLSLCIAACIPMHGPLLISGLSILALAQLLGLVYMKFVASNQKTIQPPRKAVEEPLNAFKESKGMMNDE

Sequence of CD47 (Homo sapiens) (Q08722 19-323): as above
Sequence of SIRPα (P97797 32-373): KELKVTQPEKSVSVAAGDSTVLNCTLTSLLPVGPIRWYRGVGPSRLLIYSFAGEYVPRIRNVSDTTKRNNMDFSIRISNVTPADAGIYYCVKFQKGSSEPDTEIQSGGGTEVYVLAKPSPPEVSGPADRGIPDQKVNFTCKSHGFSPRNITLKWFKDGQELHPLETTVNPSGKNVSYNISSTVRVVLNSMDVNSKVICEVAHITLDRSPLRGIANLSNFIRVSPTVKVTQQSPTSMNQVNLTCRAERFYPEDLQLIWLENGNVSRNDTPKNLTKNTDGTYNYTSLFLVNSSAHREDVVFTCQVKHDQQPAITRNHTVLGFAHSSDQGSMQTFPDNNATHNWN

Row | IC50 [1] | Substance | Kd (CD47 (Homo sapiens))
1 | – | SIRPα (from UniProt P97797) | 300 nM
2 | 233 nM | B6H12.2 | –

From article PMC10801496
